B1: PTPRD (parent)
chain: LTKLREMGREKCHQYWPAERSARY
B2: SLC19A2 (parent)
chain: IYPVWTYSYLVLLFPVFLATDYLR

Variants of: B1
Experiment: protein stability index of a GFP-peptide fusion (GPS, HEK-293T) (PSI 1-6); higher = more stable
Settings: c terminus: a fixed tail appended
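Also: lentivirally expressed fusions sorted by FACS into six bins by GFP to DsRed ratio, PSI derived from sequencing read proportions per bin multiplied by bin number.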

Protein stability index of substitutions, site by site:
Y15: D 3.31 | E 3.54 | G 3.46 | I 2.59 | H 3.41 | A 2.93 | K 3.1 | C 2.6 | F 2.86
T2: K 2.92 | G 2.77 | E 3.03 | F 1.96 | S 2.16 | W 1.78 | D 2.83 | Q 2.95 | R 2.3 | Y 1.97 | L 2.15 | P 2.53 | H 2.25 | V 1.99 | C 1.82 | A 2.69 | N 2.29 | I 2.22 | M 2.29
R5: I 2.44 | W 2.24 | G 3.18 | M 2.39 | D 3.32 | F 2.21 | K 2.29 | A 2.53 | S 3.17 | V 2.18 | T 2.38 | P 2.75 | N 2.76 | C 2.62 | E 3.16 | Y 2.23 | Q 2.91 | H 2.58 | L 2.4
M7: Q 2.56 | H 2.75 | Y 2.7 | P 2.67 | W 1.67 | K 2.98 | G 2.64 | S 2.55 | I 2.54 | R 2.35 | D 3.14 | T 2.71 | E 3.25 | A 2.57 | V 2.56 | L 1.9 | C 2.23 | F 2.41 | N 2.77
G8: K 2.04 | A 2.02 | C 2.39 | S 1.94 | F 1.73 | N 2.29 | D 3.22 | L 1.67 | I 1.29 | Q 3.13 | M 2.07 | E 2.65 | P 2.44 | T 2.95 | H 1.93 | R 2.53 | Y 2.03 | W 1.85 | V 2.58
K3: Q 2.33 | T 2.63 | N 3.09 | V 1.92 | H 2.41 | F 2.4 | G 2.64 | W 1.88 | A 2.7 | R 2.43 | Y 2.44 | I 2.08 | C 2.34 | L 2.21 | D 2.9 | M 2.41 | E 3.3 | P 2.66 | S 2.73
L1: Q 2.87 | V 2.39 | S 2.59 | G 2.47 | I 2.26 | R 2.47 | Y 2.21 | H 2.87 | E 3.12 | C 2.42 | T 2.86 | D 3.59 | K 3.36 | A 2.88 | W 2.43 | M 2.95 | F 1.97 | N 3.1 | P 2.66
L4: M 2.65 | G 3.55 | S 2.99 | K 2.8 | E 3.55 | C 2.12 | Q 3.1 | T 2.77 | H 2.84 | I 2.58 | D 3.29 | W 2.12 | A 2.72 | R 2.92 | Y 2.63 | N 3.04 | V 2.48 | P 2.88 | F 2.63
E10: A 2.08 | G 2.25 | K 2.03 | D 2.3 | P 2.71 | N 2.46 | W 2.15 | V 2.28 | R 2.42 | S 2.3 | M 1.83 | I 1.91 | Q 1.97 | Y 2.48 | T 1.87 | C 2.65 | F 2.13 | L 1.99 | H 2.05
H13: W 1.77 | Q 2.83 | M 1.97 | I 2.33 | L 2.77 | V 2.02 | Y 2.38 | F 2.15 | E 2.74 | S 2.28 | R 2.31 | N 2.79 | G 2.66 | P 2.43 | T 2.65 | K 2.53 | D 3.17 | C 1.86 | A 2.66
C12: N 3.04 | W 2.25 | T 3.38 | Y 2.98 | Q 2.83 | D 3.48 | E 3.11 | R 2.51 | L 2.39 | G 2.98 | A 3.2 | F 2.58 | S 2.66 | H 2.83 | M 2.1 | V 2.35 | K 2.27 | I 2.35 | P 3.09
R9: W 2.04 | Q 3.05 | Y 2.16 | M 2.8 | S 2.81 | C 2.15 | T 2.65 | D 3.48 | E 2.86 | H 2.73 | V 1.92 | A 2.64 | K 2.84 | P 2.53 | L 2.73 | F 2.38 | N 2.68 | I 2.29 | G 2.79
Q14: D 2.47 | H 2.95 | N 2.64 | S 2.68 | P 1.69 | I 2.27 | C 1.82 | W 1.41 | K 2.48 | T 2.62 | L 2.5 | E 3.05 | M 2.04 | V 2.61 | Y 1.85 | R 2.04 | G 2.46 | F 1.84 | A 2.46
E6: R 2.38 | V 1.73 | Y 1.7 | P 2.33 | T 2.52 | L 2.13 | M 2.18 | N 1.8 | G 2.23 | C 1.75 | S 1.98 | D 2.66 | H 2.09 | Q 2.1 | I 1.9 | A 2.41 | F 2.45 | K 1.95 | W 1.82
K11: M 2.64 | G 2.61 | L 2.21 | C 2.34 | F 2.14 | S 2.4 | Y 2.39 | W 1.89 | Q 2.44 | R 2.26 | E 3.17 | N 2.74 | I 2.53 | V 2.53 | D 3.21 | T 2.5 | A 3.23 | P 2.6 | H 2.4

Variants of: B2
Experiment: as above
Settings: c terminus: a fixed tail appended

Protein stability index: each site, then its substitutions
R24: I 3.43 | G 2.58 | T 1.69 | Q 3.46 | H 2.63 | L 2.41 | D 2.64 | N 4.07 | Y 2.75 | C 1.84 | E 1.91 | F 3.56 | S 3.04 | M 2.99 | A 2.61 | P 1.99 | K 3.31 | W 3.24
Y22: F 3.76 | V 2.6 | P 3.49 | G 1.66 | S 3.06 | R 1.75 | E 2.71 | D 2.55 | T 2.68 | K 4.23 | Q 1.98 | W 2.78
D21: H 3.39 | T 2.75 | C 2.36 | R 2.67 | F 2.61 | S 2.09 | Y 3.42 | W 2.24 | P 2.63 | N 2.65 | V 2.38 | K 2.46 | G 2.73 | E 3.77
L23: K 2.22 | T 2.48 | G 3.42 | M 3.02 | I 2.61 | N 1.46 | V 2.32 | H 2.11 | W 3.21 | R 3.03 | E 2.68 | A 3.57 | Q 2.54 | D 2.96 | S 2.62

From the supplement of paper PMC10567573
